The numbers were not newly measured in PMC2882753, which cites them from elsewhere.

The subject of series [1] is His154. The series is described as follows: NMR. The conditions noted are these: 298 K; not stated (no ferricyanide present); oxidized [2Fe-2S] cluster.
Series [2] relates to His134. Kind of series: NMR. To be noted: 298 K; not stated (no ferricyanide present); oxidized [2Fe-2S] cluster.

As a reminder, the pKa is the negative logarithm of the acid dissociation constant. Take “Rieske iron-sulfur protein, soluble fragment (TtRp) (Thermus thermophilus; del1-45;del202-210;W142F)”: the pKa in series [1] is listed as 7.46 ± 0.02; in series [2] it was 9.24 ± 0.02.
